Experimental data from patent CN117924490A (CHINA RESOURCES BIOMEDICAL CO LTD, dated 2024).

How the values were obtained:
[1] = biological target: T1, IL-4R蛋白 (Acrobiosystems, IL-H5221) (human, UniProt P24394 26-232); assay: BLI (Octet RH96), antibody captured on AHC2 probes, IL-4R protein in solution, 1:1 model
T1 construct: The two catalogue numbers differ by one letter, likely a misprint; also called Human IL4R Protein, His Tag (Acro, ILR-H5221); 人IL 4R
T1 sequence (looked up): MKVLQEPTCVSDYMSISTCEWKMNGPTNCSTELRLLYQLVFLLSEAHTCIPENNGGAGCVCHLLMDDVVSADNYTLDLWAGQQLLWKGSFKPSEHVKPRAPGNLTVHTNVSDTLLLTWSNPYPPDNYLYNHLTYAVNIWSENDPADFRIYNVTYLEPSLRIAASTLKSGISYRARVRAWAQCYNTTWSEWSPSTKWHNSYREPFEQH

[2] = biological target: T2, 人IL-4R表达于HEK293-IL-4R细胞表面 (human IL-4R on the surface of HEK293-IL-4R cells) (human, UniProt P24394 26-825); assay: FACS competition: blocking of biotinylated human IL-4 binding to HEK293-IL-4R cells, PE streptavidin, MFI
T2 construct: whole, on cells; The construct in the HEK293-IL-4R line is not described; also called 人IL-4R过表达细胞; 细胞表面IL-4R
T2 sequence (looked up): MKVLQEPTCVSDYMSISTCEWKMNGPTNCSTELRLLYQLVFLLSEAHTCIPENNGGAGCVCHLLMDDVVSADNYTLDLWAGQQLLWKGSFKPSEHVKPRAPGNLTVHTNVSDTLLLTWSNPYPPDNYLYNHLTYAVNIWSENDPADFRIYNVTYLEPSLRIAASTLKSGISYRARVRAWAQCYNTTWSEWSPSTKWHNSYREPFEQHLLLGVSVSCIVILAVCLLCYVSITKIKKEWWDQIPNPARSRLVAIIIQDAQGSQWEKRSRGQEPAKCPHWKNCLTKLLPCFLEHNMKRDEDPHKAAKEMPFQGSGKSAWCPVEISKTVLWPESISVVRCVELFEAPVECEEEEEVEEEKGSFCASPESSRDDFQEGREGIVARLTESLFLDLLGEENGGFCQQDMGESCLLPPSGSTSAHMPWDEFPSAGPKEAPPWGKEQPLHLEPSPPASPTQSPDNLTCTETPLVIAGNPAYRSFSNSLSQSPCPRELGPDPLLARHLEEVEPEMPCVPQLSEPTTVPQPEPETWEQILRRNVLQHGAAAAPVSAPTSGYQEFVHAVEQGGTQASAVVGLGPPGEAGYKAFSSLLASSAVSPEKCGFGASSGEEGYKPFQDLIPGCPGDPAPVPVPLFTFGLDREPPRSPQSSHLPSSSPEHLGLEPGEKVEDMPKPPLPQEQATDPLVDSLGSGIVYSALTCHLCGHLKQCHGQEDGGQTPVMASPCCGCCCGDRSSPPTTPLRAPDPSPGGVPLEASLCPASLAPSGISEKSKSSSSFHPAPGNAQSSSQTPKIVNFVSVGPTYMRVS

[3] = biological target: T2, 人IL-4R表达于HEK293-IL-4R细胞表面 (human IL-4R …); assay: FACS on HEK293-IL-4R cells, FITC anti-human IgG, MFI
[4] = biological target: T3, IL-4Rα on HEK293-hSTAT6/5×STAT6-Luc cells (UniProt P24394 26-825, limits assumed); assay: cell-based or functional assay
T3 sequence (looked up): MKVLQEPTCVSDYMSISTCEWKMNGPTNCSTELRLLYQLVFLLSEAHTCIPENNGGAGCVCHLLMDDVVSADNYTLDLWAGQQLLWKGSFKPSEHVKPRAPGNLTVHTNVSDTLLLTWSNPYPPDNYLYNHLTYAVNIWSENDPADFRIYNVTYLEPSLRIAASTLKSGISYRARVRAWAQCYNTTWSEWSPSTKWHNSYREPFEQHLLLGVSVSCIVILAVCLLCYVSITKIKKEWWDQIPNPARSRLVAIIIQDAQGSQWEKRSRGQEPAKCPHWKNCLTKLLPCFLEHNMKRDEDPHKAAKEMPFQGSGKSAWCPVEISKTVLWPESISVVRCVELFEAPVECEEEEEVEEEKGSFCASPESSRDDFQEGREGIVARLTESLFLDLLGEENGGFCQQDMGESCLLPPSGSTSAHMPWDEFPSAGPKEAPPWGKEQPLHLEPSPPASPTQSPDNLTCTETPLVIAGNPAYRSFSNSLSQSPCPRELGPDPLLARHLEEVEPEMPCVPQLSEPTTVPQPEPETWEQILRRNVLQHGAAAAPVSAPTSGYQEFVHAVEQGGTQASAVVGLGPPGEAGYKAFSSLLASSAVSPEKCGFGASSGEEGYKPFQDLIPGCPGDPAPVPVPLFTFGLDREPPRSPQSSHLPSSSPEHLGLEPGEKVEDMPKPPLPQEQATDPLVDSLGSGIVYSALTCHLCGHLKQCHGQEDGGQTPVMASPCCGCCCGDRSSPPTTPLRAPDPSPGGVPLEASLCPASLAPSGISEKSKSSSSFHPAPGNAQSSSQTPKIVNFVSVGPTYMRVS

B1: 65G5 (antibody, human IgG1, kappa, V domains shown)
VH: EVKLVESGGALVQPGGSLKLSCAASGFTFNSYGMSWVRQTPDKRLELVAVISSDGAYTYYPDSMKGRFTISRDNAKSSLYLQMSSLQSEDTAMYYCTLITTWYFDVWGAGTTVTVSS
VL: DIQMTQSSSSFSVSLGDRVTITCKASEELYNRLAWYQQKPGNAPRLFISGATTLETGVPSRFSGSGSGKDYTLSITSLQTEDVATYYCQQYWSSPYTFGGGTKLELKR
notes: also called 抗人IL-4R抗体; 抗IL-4R抗体
Kd [1]: 0.341 nM | IC50 [2]: 0.075 µg/mL | EC50 [3]: 0.334 µg/mL | 抑制IL-4诱导的HEK293-hSTAT6/5×STAT6-Luc细胞中STAT6磷酸化活性 (luciferase reporter, IL4 protein 40ng/mL) IC50 [4]: 92.7 nM | 抑制IL-13诱导的HEK293-hSTAT6/5×STAT6-Luc细胞中STAT6磷酸化活性 (luciferase reporter, IL-13 protein 10ng/mL) IC50 [4]: 5.6 nM
